# In the DeepSol protein solubility set:
# Experiment: soluble on expression in E. coli; label from the status in PepcDB or PDB records
row,Sequence,soluble on expression in E. coli
1,GPGSMTSPKIKAVFVDMDGTLFNSDHLISPRTAKVIHALEERGVAFVVATGRPFPDVFGNLAQTELRPDFIITSNGARVHDAQHNILFACDMDAESVCRLFQLSPHLSEDGVVDPSVQARRILCNVNCRDRWLTNECIPEVRAAFHPSFIYERVDPMVQTAKTLEGTHSMWIRGAHADLVCVQKYVDRELSGEIRCAFALPHILDCFRKDVNKGAAMEKVCKHLRIDLRETIAFGDGMNDIRMLTAAGQGFVMANAAEMVKQAAPELPVIQSNNEEGVAWKLEELLAADAFVG,soluble
2,MAPTLLELTASIVSSHAAVSELSTEELVQEIQKVHATLQQLEGGAAAPEVAAEEAKAPAMTLKKAFQADQVCCMICGKGGMKTLTRHLAQVHQMKPGEYRKQFNIPSSQPLTAKKFSEARKQMAKDRGLAENLAKARAVRAAKIQEKKAAAEKPAKTKATRAKKATA,not soluble
3,MPILQELRLGKRISRDISLADLYQEWIELKILPSSRSEETKKKYLLRKNTIERLFGNKKVTQIRASEYQRIMNKYGQTVGRNFLGRLNTGIHQSIQMAIADKVLIDDFTQHVELFSSKLEHHHHHH,soluble
4,MKVEKFKVLLYLKKSEPDKNGKAPIMGRITLNRTMAQFSCKLSCTPELWNARESRLNGKSRKAVETNEKIERLLLAVHSAFNSLMERKKDFDAAAVRDMFQGNAGIQMTLLKLLDRHNGEMKARVGVDRAPTTLSTYLFTYRTLSEFIKAKFKVSDLAFGQLNEQFIRDYQDFILMEKGHAVDTLRGYLAILKKICRIAYKEGHSEKYHFCHFKLPKQKESTPKALSRENFEKLRDLEIPEKRRSHVITRDLFLFACYTGTAYADVVSITRENLFTDEENNLWLKYRRKKTNYLGRVKLLPEALVLIEKYRDDARMTLFPPQDYHTLRANMKSLRLMAGLSQDLVYHTARHSFASLITLEEGVPIETISKMLGHSNIKTTQIYARVTPKRLFEDMDRFIEATRDLKLIL,not soluble
5,MDLADLMEVENGDHSINQKHVQITFFSKDEEIPQIPDAVFDVPTGAECDDMNLLLNKTIEANDGAWKERRFEFLVGETFLRTSLAEFIEEYEVETETILKVECVIGIEAPKPLHDIQAPDWVSSVQIANGHIFSTTYGGDIVIVDRKGKETKLAVNSANRLLKCISIVKAPSKKNQLDGTEFVVGGENQLLTLYAIEKGALVEKLILRGHERAVECVSVNSDSTRAISGSVDTNLKIWNLDASDEATTYEKEEEEESAKKRRKKETKTKVPMVTIGGHRDKVSAVEWCPWNSGHAFSCSWDHTIVEWDLELAGEISRIKGPKSFTSIDLHPKSDLLISSCTDAIPRLYDPKNRDGSMVKQSFIGHQNGWVEAVKWNPLDTNQFVSVSTDKTAKMWDVRSSKSSLFDIHGHDDRILCATWNEGLIATGSADCTIKIFETA,not soluble
6,MVHHDGFQTVKGTIDWEHPMYKLYEKAKRNGKWNPADIDFSQDKEDFARLTSEEKIAALPLVAGFSAGEEAVTLDILPMAHALARQGRLEDVMFLTTFMHDEAKHVEMFSRWQQEVGIGAMDLSVFHNDHYKRIFYEALPEAMNRLYTDDSPEAVIRAATVYNMIVEGTLAESGYYTFRQIYKKAGLFPGLLQGIDYLNMDEGRHIQFGLYTIQRLVNENERYYDLFIQYMDELWPHVVGYVAYLTELGKRQQQLARTYALEIDYDMLNNYVVKQFNIRKKQISRAKRVDSIEELEKTVAES,not soluble
7,GPGSMVRCSRPAFRQVCRAWGTRVSYTHMLMAESFVKSPHARHAEFARYEGENRLVAQLAAKSGPAAAQAALLLRPYCDGIDLNCGCPQRWAMKEGIGAALLDQPERVADMVRSIRNAMPDGSTAPMIVGNGGEYSSCTSAVPPFLPCVVKMRIKDDLRRSVDFARQCEAAGVSWLTVHGRTPTCHSSTAVQFEAVKLIRENLSVPVVLNGGVTDVSTAMEAALRTGCGGLMSANGLLDNPAMFYCGASRAAMEAEMSFVTSCWGRPPRTCDPVSPPAETAAPDVFSEVFSPVRPVSFLWAPDRSNAEAVLLRYTVADMWQAAVTPREVISDFMRAAMRTDLVVPTTVQQVLRMARLYVSPAERNHLALLRSNLSVLNALQEIDVYVESGRIACE,not soluble
8,MGSDKIHHHHHHMSLQRPDEKLKSDVLIGVGLRHQHFTEALTTPSNIDFVEVHSENFFAQGGATQSVLAQASEKYAISLHSTAMGLGSAQGVPSHYLQKLKQLASTCNPILMSDHACFSWSQLKGQQVHAGDLLPLAYSEQTLMVLSHNIDRVQQSLGRSLLVENLSAYIQYSHACMPETEFLVRLAELTGCKLLVDLNNIIVTANNINAAQPLDYAQQWLAEIPTDMVGEIHLAGFTEVKEGELIIDDHSQAVSSQGWQLYRSALERFGKIPTLVEWDNNLPSWHTLVAEADKARMIAKQVFGDNNSSKITTAMTGLESEFIHE,not soluble
9,MTQTAAPARYSPAELACALGLFPPTAEQAAVIAAPPGPLVVIAGAGAGKTETMAARVVWLVANGYAEPGQVLGLTFTRKAAGQLLRRVRSRLARLAGIGLGCGDPAACAPVVSTYHAFAGSLLRDYGLLLPLEPDTRLLSETELWQLAFDVVSGYDGVLCTDKSPAAVTSIVVRLWGQLGEHLVDTRALRDTHVELERLVHALPAGRYQRDRGPSQWLLRMLATQTQRAELVPLLDALGERMHAGKVMDFAMQMASAARLAATSPQVGQDLRRRYRVVLLDEYQDTGHAQRVVLSSLFGGGVDDGLALTAVGDPIQSIYGWRGASATNLPRFTTDFPLSDGTPAPVLELLTSWRNPPQALRVANGISAEARRRSVAVRALRPRPDAPPGAVRCALLPDVQAEREWIADHLRMRYQRAEADGVKPPTAAVLVRRNADAAAIADTLRARGIPAEVVGLAGLLSIPEVAEVVAMLRLVADPTAGAAAMRVLTGPRWRLGARDLAALWRRALTLSGESPSTASPESIAMAASADADNPCLADAISDPGSAEGYSVAGYGRIGALAGELSALRGRLGHSLPDLVAEVRRVLGVDCEVRASAPVSGGWAGPEHLDAFADVVAGYAERASARSSEASVAGLLAYLDVAEVVENGLPPAELTVACDRVQVLTVHAAKGLEWQVVAVAHLSRGVFPSTVSRSSWLTDPAELPPLLRGDRASAGAHGIPVLDTSAVADRKQLSDKISEHRRLLDRRRVDEERRLLYVAVTRAEDTLLVSGHHWGPTGTKPRGPSEFLCELKDIIDRSAAAGDPCGVVEQWASAPAGDERNPLCDNAIEAVWPADPLAARRGDVERGAALVAAAMSADLPGSTTDIDHPPRPGDAPWSTDVDALLAERAHAARGAPARGLPNHLSVSSLVELVGDPVGARQRLMCRLPKRPDPHAWLGDAFHAWVQQFYGAELLFDLGDLPGAADREVGDPEELAALQRAFTASSWAARTPAAVEVPFEMPIGDTVVRGRIDAVFVDPDGGATVVDWKTGKPPHGPAAMRQAAVQLAVYRLAWAALRGCPTSSVRTAFYYVRSGITVVPDELPAPGELAMLLTDCAGRRSDT,not soluble
10,QFDPSIVLTEVAMLLEKADINEEVERTKSHLKQFYGIILLEEPIGRKLDFLIQEMNREINTIGSKASSLKITEQVVEMKTTLEKIREQVQNVE,not soluble
11,MRYIAGIDIGNSSTEVALATLDEAGALTITHSALAETTGIKGTLRNVFGIQEALALVARGAGIAVSDISLIRINEATPVIGDVAMETITETIITESTMIGHNPKTPGGAGLGTGITITPQELLTRPADAPYILVVSSAFDFADIASVINASLRAGYQITGVILQRDDGVLVSNRLEKPLPIVDEVLYIDRIPLGMLAAIEVAVPGKVIETLSNPYGIATVFNLSPEETKNIVPMARALIGNRSAVVVKTPSGDVKARAIPAGNLELLAQGRSVRVDVAAGAEAIMKAVDGCGRLDNVTGESGTNIGGMLEHVRQTMAELTNKPSSEIFIQDLLAVDTSVPVSVTGGLAGEFSLEQAVGIASMVKSDRLQMAMIAREIEQKLNIDVQIGGAEAEAAILGALTTPGTTRPLAILDLGAGSTDASIINPKGDIIATHLAGAGDMVTMIIARELGLEDRYLAEEIKKYPLAKVESLFHLRHEDGSVQFFSTPLPPAVFARVCVVKADELVPLPGDLALEKVRAIRRSAKERVFVTNALRALRQVSPTGNIRDIPFVVLVGGSSLDFEVPQLVTDALAHYRLVAGRGNIRGSEGPRNAVATGLILSWHKEFAHER,soluble
